The text below walks through data of the domain aggregation screens of Martell et al. (2025).
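Also: 20 min heating vs room temperature control held 20 min.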

A short description of the series: soluble fraction after stress (log2 fold change); higher = more stays soluble; pooled small domains, quantitative proteomics. As to conditions: stress: 75 degC.
For the sequence “HMLEDIDNSIKKEIILEHYDKMLEFHGDYGAIIFRKLLHAYSKGYTGANEFRDLVNQISDKNIMRDLIESF”, the “soluble fraction (log2)” value was -0.947. On to “HMLEEIIDVKRFLVENVRGVSEKTALAILSEFGDKTMDVLRNSPNELYRIKGMSGKRIEVIKDAIANATAS”, for which the “soluble fraction (log2)” value was -0.568.

In the case of “HMLEINTIIGNNLKKIRQEKKLTLDELAGITGVSKGMLSQIEKGTTNPTINTIWKISNGLNVPYTYLLEDD”, the “soluble fraction (log2)” value is -0.513.

With “HMLENIVFTNKFKNKRLDVLLVDMKLVSSRQKAVSLIMRGNVFVEEERADKPGKIIKLNQTISLKK”, the “soluble fraction (log2)” value was -2.78.

Regarding “HMLERPLKLKSHYVSAINEKVAVQFQAGEERKSIMGTLTEVNQDTIVIDDRGSVTEIPFKSIIRAKTVF”, the “soluble fraction (log2)” value was -0.621. On to “HMLESPVEAIIRQIKQLITNGKLKPGDRLPAERLLAENFGVGRGYVREAIMKLEFFGLLKTSPQSGTYVAG”, for which the “soluble fraction (log2)” value is -1.39.

In the case of “HMLETIDIFKVTGGEPFLSKDFLEILDLAIEKDLAKNITLMITTNASKFVKKILDKFIHFKRVEFTVS”, the “soluble fraction (log2)” value stood at 0.407. In the case of “HMLFGKKYLGKVPNDASGRISLWNDIVKHHQELQNIRAIENFTSDNVTVAQGDTKKAVVVTDYVT” it was -0.286; in that of “HMLFQGDTPAENIILEILSKNGTTASDSIIKQSGLSVSDFNQAATMLEIKGLISNNGGNIWSL”, -0.0591. As to “HMLFVKLSDAQRSMFGAKLARDARIQSEYAQKLPSENYEVFGKALADMLLDETHFKTFYPLLVEYGYTQPK”, the “soluble fraction (log2)” value was -1.32. The result for “HMLGDIYISIPRAKLQAEEYGHSFKRELAFLAVHGFYHLLGYDHQTKEEEEVMFGKQEEVLAEFDIKR” reads -0.0616; that for “HMLGKNEAKEYKVAYGDIGKMPALIMGLVPLPKPPVVDERLRTLYVTATPEQHREIEAIMNRI”, 0.236; that for “HMLGKSNAERQLDLILGAIERSITGVSRSKLMQAYHLDSRGATAAFETLEQRGLITRSKSGRTELLIPTRV”, -1.78. Take “HMLGWEDVIQFEEVKGYGQHIWRDGNHLYYVTEEGGIAPQRVVYELPNELFALLESGERTQLEILSKLQ”: the “soluble fraction (log2)” value is -2.51. In the case of “HMLHNEFINDRIQSAINNLSEHFKIVIILRDIQELSYEEISNIVEVPLGTIKSRINRARIQLQAELLDL” it was 0.215; in that of “HMLILDTDGRYVIKRGDSLSEILEKIANGSNINLNLLKRAFVTANPKAFKRANPNWMYANAR”, -0.249; in that of “HMLIPTISVTKEGQLRFENIPVSWEELGTRLRDVSDLDKIKIYADAESDALTISEIMKTAANVGIVQFVLV”, -1.03.

As for “HMLIRKGVVSFFNDAKGYGFIKDLVTQESAFVHVNSLSETIKEHDKVTFEVEMGHKGANAVNVKLVK”, the “soluble fraction (log2)” value was -1.09. For the sequence “HMLIVLKPNVSQEEIDHIVDKIRSLSLEPHVSTGVQRTIITVIGDEDVIREQPLEALAGVESVKSILKP”, the “soluble fraction (log2)” value was -0.358. Take “HMLKGTVKWFNESKGFGFIEQEEGKDVFVHYSAITGSGFKTLNEGDKVQFEIVDGPKGPAAANVSK”: the “soluble fraction (log2)” value amounted to 0.036. The result for “HMLKKGDQVYIISGKDKGKLGVVSQIVSEERILVDGINLAKKHVKPNPNKNETGGVVEKEMPIHASNVMI” reads 0.243. Turning to “HMLKLTDRQKVILSILMSDGEKTASWIASQLGVGLRSVQLDLSYLRNNGFIKKASKSTHSAWIVLKK”, the “soluble fraction (log2)” value was -4.1. Turning to “HMLKPIHKDWSPNGDAKEILLKAGITEEFIQKELPEFIMYWSERNEESDIWNSKFIAHIRRRWGRFS”, the “soluble fraction (log2)” value was -1.64. As to “HMLKPVVLLGARGLTDAVEKEVERALDEHGLIKIHVPSDDREERDEIYTTLADKLNAARIQAIGKMLVLW”, the “soluble fraction (log2)” value was -0.0344. In the case of “HMLKSGSAVAQARDVILEKGVPVHINEILDALGKGDTREAKASLTSSLAAYVRRGEIFTRPAPNTFGLVEL”, the “soluble fraction (log2)” value was -0.592. With “HMLKTADAIASVLLTRIQAGEFSAGRLPAERALSEAFSTTRITLREALGKLEAQGMIYRELRRGWFIA”, the “soluble fraction (log2)” value is -1.85. In the case of “HMLLFNPGEVLKGFVLQSGTNNRVLLQIGDSRVIADTQTPLKAGEQLVLRVEETGPKTILQILG” it was 0.177; in that of “HMLLGDYIQKLRNQRGLSQQEFADKLGIGRSTLANYEQNKRSPDYETLIEISKFFNVSIDELLGV”, -1.05. The result for “HMLLLASTPAEQTIIQLLAEGWRDGDQLQQRSHLSAADFSTALTMLEVNGSIKPLGANHWALTH” reads -1.26; that for “HMLLPANLTKSQRNIAERVARGQSNLEIAADLNITERTVKAHLTSIYEKTKTGNRLNLALLINLG”, -0.289; that for “HMLLPGEELRVMIIQEGKEYGQGVGYLDDGTMVVVEDGQRALNRTENVVVTKVLQTTAGRMIFAK”, -0.71. In the case of “HMLLQENRKLHSKLEELQLISRAKAVLIEYLKLTEPQAHRYIEKQAMDLGLTRPQVALNILKTYE”, the “soluble fraction (log2)” value is -1.38. In the case of “HMLLQTAVISTDIVNMRAEPTTNSSVIRKLTKGSDITINQEKDGWYKISDDQGNSGWIVTWAAKPT” it was -0.208; in that of “HMLMDVRVPDIIGVEINQAKEILTASSLLIGKITYVSLPEIEKDLVIETSVLAGRRVSAGTVIDITVNKE”, -2.09; in that of “HMLMKPQKTRDVLRYLKSIGWVRLRGGQGSHEIWGLPDGSIRAVIPAGHREISAGVLMQLKRAGVDVPTQW”, -1.25. The result for “HMLMLTPGQIAQTLDVSTATVRRWSARYARHLSPNTPGKKRSYTVDDLAVLTRVRDLSATGTPLAQIDQAL” reads -2.11. In the case of “HMLMLTPGQVSNSLNVSTATVRRWSARFARHLSPQPPNRKRSYTPDDLATLARVRDLSASGTSLAQIDIAL” it was -2.59. On to “HMLMRSPDFLIGWFQNLVAKRETFNDQVQAKNLIEAGKQHIQGEDFDRLLEVNRRLFSLLPQREQE”, for which the “soluble fraction (log2)” value stood at 0.177. Regarding “HMLNAPFGFRIEDDTLIPIPEEAKVVRQIFRYYLQGMGFGKIAQELNGQDVPGKPWGKERIKYILSNEKYI”, the “soluble fraction (log2)” value was -2.47. In the case of “HMLNERQKKIIKILKDNKNWMTGKELSEFLNVSDRTIRSDIEYINRYNNALIESNVKNGYHLNFE” it was -0.233.

For “HMLNIVTIFEEQFGRPLSPIELNIIKDWKESDYSDEMIVKALKEAVKSQVLNFRYVEGILNNWAKNG”, the “soluble fraction (log2)” value was -0.783. In the case of “HMLNLNEAEKSIYVLIKKNESNNLNKVKEDSNLSNKAWDKGIKNLVKNNLVKVVKSNEGLFIQLV”, the “soluble fraction (log2)” value is -0.636. For the sequence “HMLNLNILTDKEKFIAKLISRGLSDSLIAKELYISISTVRSHVNSIYGKTNIKNRSHLASSFLYFELGNLL”, the “soluble fraction (log2)” value was -0.204. The result for “HMLNPMILLTKGGENIRLDKFLSSHLSDLSRTQIQKMVKEGLVLVNGEPSKVGLKLDGSETIQYTLPK” reads -0.18. In the case of “HMLNSISIKTNKKIDFLEKNEHLVNFVYEKETMEHIYNLSYENKKDLQELQNKLSDIEGIIKINTDL” it was 0.651; in that of “HMLPDVSITGHIFIRSGSRLNRIFVGESTYHVGDMLDGKWLIESINSDSLELRSGTQTTELPL”, -2.83; in that of “HMLPDYLIELKKKADSGDAVSQNDIGNIYLYGLPRVNIYPDEKNIGIGIDYLYKAAWQDQVNAMTTI”, -0.098. In the case of “HMLPELQPGQTFSARIQQALPDNTYRALVAGKQLTLQLPEGAKAGDELELVVLDRSARVIIARQVD” it was -0.691; in that of “HMLPGERFKVKIAQAGKEKKQGIGYLNDGTMVVIENGIEKVGEEVEAVVIKVIQSSAGKIIFSEVAK”, 0.0862. Turning to “HMLPGKEIPLPEFLREAFARNEPALENFQNLAPSYRRQYILWITSAKTPETVQKRISESIGLLKENRKLGM”, the “soluble fraction (log2)” value was -0.616.
